# Reference: the supplement of paper PMC9112550, “Optimization of the antimicrobial peptide Bac7 by deep mutational scanning” (BMC Biology, 2022)
# Test system: Escherichia coli TOP10
# Experiment: shrunken log2 fold change of peptide-encoding DNA abundance (4.5 h post-induction vs induction); higher = less antimicrobial activity (less host growth inhibition)
# Conditions: time post-induction: 4.5 h; library: site-saturation at positions 5, 18, 19, 20
# 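Also: peptides expressed intracellularly from a pBAD plasmid library in pooled LB shake-flask culture, induced with 0.3% L-arabinose, DNA abundance read by NGS, three biological replicates, DESeq2 with apeglm shrinkage.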
row,Sequence,shrunken log2 fold change
1,RRIRGRPPRLPRPRPRPIITPRP,-0.0865
2,RRIRQRPPRLPRPRPRPWIGPRP,-0.013
3,RRIRTRPPRLPRPRPRPLINPRP,-0.692
4,RRIRERPPRLPRPRPRPIHFPRP,-0.00865
5,RRIRHRPPRLPRPRPRPQEPPRP,-0.136
6,RRIRARPPRLPRPRPRPDWCPRP,0.0911
7,RRIRTRPPRLPRPRPRPAFEPRP,0.219
8,RRIRYRPPRLPRPRPRPRIVPRP,-0.369
9,RRIRFRPPRLPRPRPRPFAQPRP,-0.263
10,RRIRLRPPRLPRPRPRPCVGPRP,-0.0253
11,RRIRGRPPRLPRPRPRPMMLPRP,0.158
12,RRIRYRPPRLPRPRPRPDVMPRP,0.0199
13,RRIRMRPPRLPRPRPRPANNPRP,-0.264
14,RRIRMRPPRLPRPRPRPNNEPRP,-0.0748
15,RRIRCRPPRLPRPRPRPGSAPRP,0.148
16,RRIRHRPPRLPRPRPRPLHAPRP,0.297
17,RRIRTRPPRLPRPRPRPLWMPRP,-0.119
18,RRIRGRPPRLPRPRPRPTRGPRP,0.808
19,RRIRQRPPRLPRPRPRPHCIPRP,0.0493
20,RRIRHRPPRLPRPRPRPDCNPRP,-0.18
21,RRIRDRPPRLPRPRPRPQAQPRP,-0.0247
22,RRIRGRPPRLPRPRPRPCCAPRP,1.55
23,RRIRLRPPRLPRPRPRPLSHPRP,0.2
24,RRIRARPPRLPRPRPRPEVYPRP,-0.00104
25,RRIRARPPRLPRPRPRPHPNPRP,0.21

row,Sequence,shrunken log2 fold change
1,RRIRLRPPRLPRPRPRPCGIPRP,0.142
2,RRIRGRPPRLPRPRPRPETKPRP,0.374
3,RRIRFRPPRLPRPRPRPSQRPRP,0.384
4,RRIRNRPPRLPRPRPRPFVDPRP,-0.725
5,RRIRWRPPRLPRPRPRPREFPRP,0.349
6,RRIRRRPPRLPRPRPRPRRRPRP,0.778
7,RRIRHRPPRLPRPRPRPFVRPRP,-0.073
8,RRIRQRPPRLPRPRPRPHPWPRP,0.0242
9,RRIRGRPPRLPRPRPRPALIPRP,0.737
10,RRIRNRPPRLPRPRPRPWESPRP,0.291
11,RRIRLRPPRLPRPRPRPGWCPRP,0.191
12,RRIRIRPPRLPRPRPRPHIRPRP,-0.297
13,RRIRRRPPRLPRPRPRPMTKPRP,0.0629
14,RRIRQRPPRLPRPRPRPPPYPRP,-0.0506
15,RRIRNRPPRLPRPRPRPPASPRP,0.486
16,RRIRYRPPRLPRPRPRPALEPRP,-0.486
17,RRIRARPPRLPRPRPRPQTSPRP,0.00801
18,RRIRARPPRLPRPRPRPHMRPRP,0.669
19,RRIRVRPPRLPRPRPRPGIGPRP,0.344
20,RRIRGRPPRLPRPRPRPCPLPRP,-0.0214
21,RRIRWRPPRLPRPRPRPFVGPRP,-0.166
22,RRIRSRPPRLPRPRPRPCKSPRP,0.00889
23,RRIRHRPPRLPRPRPRPQTLPRP,-0.313
24,RRIRCRPPRLPRPRPRPAYDPRP,0.0664
25,RRIRARPPRLPRPRPRPTYHPRP,-0.225

row,Sequence,shrunken log2 fold change
1,RRIRGRPPRLPRPRPRPPWCPRP,0.491
2,RRIRDRPPRLPRPRPRPREEPRP,1.27
3,RRIRPRPPRLPRPRPRPGIEPRP,-0.00839
4,RRIRMRPPRLPRPRPRPVSWPRP,0.553
5,RRIRRRPPRLPRPRPRPCKIPRP,0.0604
6,RRIRMRPPRLPRPRPRPDPIPRP,-0.249
7,RRIRIRPPRLPRPRPRPRDMPRP,-0.902
8,RRIRGRPPRLPRPRPRPNGQPRP,0.386
9,RRIRIRPPRLPRPRPRPANHPRP,-0.528
10,RRIRDRPPRLPRPRPRPRTAPRP,0.445
11,RRIRQRPPRLPRPRPRPGMQPRP,0.00486
12,RRIRQRPPRLPRPRPRPQDCPRP,-0.186
13,RRIRSRPPRLPRPRPRPFTDPRP,-0.04
14,RRIRMRPPRLPRPRPRPFSYPRP,-0.029
15,RRIRNRPPRLPRPRPRPWMYPRP,0.0204
16,RRIRTRPPRLPRPRPRPIHDPRP,-0.0511
17,RRIRHRPPRLPRPRPRPRLNPRP,-0.249
18,RRIRYRPPRLPRPRPRPGTYPRP,-0.0385
19,RRIRERPPRLPRPRPRPTAEPRP,0.265
20,RRIRCRPPRLPRPRPRPWNSPRP,-0.529
21,RRIRMRPPRLPRPRPRPTIMPRP,0.176
22,RRIRDRPPRLPRPRPRPAAAPRP,1.35
23,RRIRVRPPRLPRPRPRPLMNPRP,-0.649
24,RRIRNRPPRLPRPRPRPAYLPRP,-0.284
25,RRIRWRPPRLPRPRPRPLLDPRP,0.0164
